# Source: US20260217779A1 (Chugai, published 2026)
# Changes are numbered by the printed parent chain. Numbers in names are those of the source.
# T1: human CXCR3 (hCXCR3) on Ba/F3 transfectant cells (human, UniProt P49682 1-368)
# T1 sequence: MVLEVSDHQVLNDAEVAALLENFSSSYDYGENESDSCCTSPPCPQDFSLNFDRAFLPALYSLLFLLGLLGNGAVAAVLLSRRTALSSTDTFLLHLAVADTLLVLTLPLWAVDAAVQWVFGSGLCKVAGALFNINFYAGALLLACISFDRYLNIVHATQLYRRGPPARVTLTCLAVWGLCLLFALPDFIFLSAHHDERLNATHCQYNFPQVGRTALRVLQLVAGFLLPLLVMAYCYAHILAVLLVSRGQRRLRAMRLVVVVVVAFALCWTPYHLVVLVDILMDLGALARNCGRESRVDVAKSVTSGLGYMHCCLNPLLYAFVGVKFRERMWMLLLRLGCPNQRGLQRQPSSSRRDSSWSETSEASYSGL
# B1: hCXCL11-G1T4k.one//VHn-G1T4h.one.H435R (Fc fusion)
# chain 1: FPMFKRGRCLCIGPGVKAVKVADIEKASIMYPSNNCDKIEVIITLKENKGQRCLNPKSKQARLIIKKVERKNFEPKSSDKTHTCPPCPAPELRRGPSVFLFPPKPKDTLMISRTPEVTCVVVDVSHEDPEVKFNWYVDGVEVHNAKTKPREEQYNSTYRVVSVLTVLHQDWLNGKEYKCKVSNKGLPSSIEKTISKAKGQPREPQVCTLPPSREEMTKNQVSLWCLVKGFYPSDIAVEWESNGQPENNYKTTPPVLDSDGSFFLYSKLTVDKSRWQEGNVFSCSVMHEALHNHYTQKSLSLSP
# chain 2: EPKSSDKTHTCPPCPAPELRRGPSVFLFPPKPKDTLMISRTPEVTCVVVDVSHEDPEVKFNWYVDGVEVHNAKTKPREEQYNSTYRVVSVLTVLHQDWLNGKEYKCKVSNKGLPSSIEKTISKAKGQPREPQVYTLPPSRCEMTKNQVSLSCAVKGFYPSDIAVEWESNGQPENNYKTTPPVLDSDGSFFLVSKLTVDKSRWQEGNVFSCSVMHEALHNRYTQKSLSLSP
# B2: hCXCL11.0006-G1T4k.one//VHn-G1T4h.one.H435R (Fc fusion)
# chain 1: B1 chain 1 with P2F
# chain 2: B1 chain 2
# B3: hCXCL11.0014-G1T4k.one//VHn-G1T4h.one.H435R (Fc fusion)
# chain 1: B1 chain 1 with P2Q
# chain 2: B1 chain 2
# B4: hCXCL11.0003-G1T4k.one//VHn-G1T4h.one.H435R (Fc fusion)
# chain 1: B1 chain 1 with P2A
# chain 2: B1 chain 2
# B5: hCXCL11.0016-G1T4k.one//VHn-G1T4h.one.H435R (Fc fusion)
# chain 1: B1 chain 1 with P2S
# chain 2: B1 chain 2
# B6: hCXCL11.0017-G1T4k.one//VHn-G1T4h.one.H435R (Fc fusion)
# chain 1: B1 chain 1 with P2T
# chain 2: B1 chain 2
# B7: hCXCL11.0015-G1T4k.one//VHn-G1T4h.one.H435R (Fc fusion)
# chain 1: B1 chain 1 with P2R
# chain 2: B1 chain 2
# B8: hCXCL11.0011-G1T4k.one//VHn-G1T4h.one.H435R (Fc fusion)
# chain 1: B1 chain 1 with P2L
# chain 2: B1 chain 2
# B9: hCXCL11.0013-G1T4k.one//VHn-G1T4h.one.H435R (Fc fusion)
# chain 1: B1 chain 1 with P2N
# chain 2: B1 chain 2
# B10: hCXCL11.0008-G1T4k.one//VHn-G1T4h.one.H435R (Fc fusion)
# chain 1: B1 chain 1 with P2H
# chain 2: B1 chain 2
# B11: hCXCL11.0010-G1T4k.one//VHn-G1T4h.one.H435R (Fc fusion)
# chain 1: B1 chain 1 with P2K
# chain 2: B1 chain 2
# B12: hCXCL11.0020-G1T4k.one//VHn-G1T4h.one.H435R (Fc fusion)
# chain 1: B1 chain 1 with P2Y
# chain 2: B1 chain 2
# B13: hCXCL11.0012-G1T4k.one//VHn-G1T4h.one.H435R (Fc fusion)
# chain 1: B1 chain 1 with P2M
# chain 2: B1 chain 2
# B14: hCXCL11.0007-G1T4k.one//VHn-G1T4h.one.H435R (Fc fusion)
# chain 1: B1 chain 1 with P2G
# chain 2: B1 chain 2
# B15: hCXCL11.0009-G1T4k.one//VHn-G1T4h.one.H435R (Fc fusion)
# chain 1: B1 chain 1 with P2I
# chain 2: B1 chain 2
# B16: hCXCL11.0005-G1T4k.one//VHn-G1T4h.one.H435R (Fc fusion)
# chain 1: B1 chain 1 with P2E
# chain 2: B1 chain 2
# B17: hCXCL11.0004-G1T4k.one//VHn-G1T4h.one.H435R (Fc fusion)
# chain 1: B1 chain 1 with P2D
# chain 2: B1 chain 2
# B18: hCXCL11.0018-G1T4k.one//VHn-G1T4h.one.H435R (Fc fusion)
# chain 1: B1 chain 1 with P2V
# chain 2: B1 chain 2
# B19: hCXCL11.0019-G1T4k.one//VHn-G1T4h.one.H435R (Fc fusion)
# chain 1: B1 chain 1 with P2W
# chain 2: B1 chain 2
# Biological target: T1, human CXCR3 (hCXCR3) on Ba/F3 …
# Experiment: cell-based or functional assay
binder,measurement,value
B1,Luminescence value at 33 nM,7.68e+06
same,Luminescence value at 100 nM,1.67e+07
same,Luminescence value at 300 nM,1.24e+07
B2,Activity retention rate at 33 nM,4%
same,Activity retention rate at 100 nM,27%
same,Activity retention rate at 300 nM,79%
same,Luminescence value at 33 nM,326000
same,Luminescence value at 100 nM,4.55e+06
same,Luminescence value at 300 nM,9.79e+06
B3,Activity retention rate at 33 nM,105%
same,Activity retention rate at 100 nM,89%
same,Activity retention rate at 300 nM,60%
same,Luminescence value at 33 nM,8.07e+06
same,Luminescence value at 100 nM,1.48e+07
same,Luminescence value at 300 nM,7.51e+06
B4,Activity retention rate at 33 nM,49%
same,Activity retention rate at 100 nM,70%
same,Activity retention rate at 300 nM,90%
same,Luminescence value at 33 nM,3.76e+06
same,Luminescence value at 100 nM,1.17e+07
same,Luminescence value at 300 nM,1.12e+07
B5,Activity retention rate at 33 nM,65%
same,Activity retention rate at 100 nM,75%
same,Activity retention rate at 300 nM,69%
same,Luminescence value at 33 nM,4.95e+06
same,Luminescence value at 100 nM,1.25e+07
same,Luminescence value at 300 nM,8.57e+06
B6,Activity retention rate at 33 nM,61%
same,Activity retention rate at 100 nM,74%
same,Activity retention rate at 300 nM,69%
same,Luminescence value at 33 nM,4.72e+06
same,Luminescence value at 100 nM,1.24e+07
same,Luminescence value at 300 nM,8.54e+06
B7,Activity retention rate at 33 nM,34%
same,Activity retention rate at 100 nM,73%
same,Activity retention rate at 300 nM,98%
same,Luminescence value at 33 nM,2.62e+06
same,Luminescence value at 100 nM,1.23e+07
same,Luminescence value at 300 nM,1.22e+07
B8,Activity retention rate at 33 nM,3%
same,Activity retention rate at 100 nM,24%
same,Activity retention rate at 300 nM,77%
same,Luminescence value at 33 nM,262000
same,Luminescence value at 100 nM,4.02e+06
same,Luminescence value at 300 nM,9.6e+06
B9,Activity retention rate at 33 nM,71%
same,Activity retention rate at 100 nM,78%
same,Activity retention rate at 300 nM,81%
same,Luminescence value at 33 nM,5.49e+06
same,Luminescence value at 100 nM,1.31e+07
same,Luminescence value at 300 nM,1.01e+07
B10,Activity retention rate at 33 nM,44%
same,Activity retention rate at 100 nM,73%
same,Activity retention rate at 300 nM,108%
same,Luminescence value at 33 nM,3.4e+06
same,Luminescence value at 100 nM,1.22e+07
same,Luminescence value at 300 nM,1.34e+07
B11,Activity retention rate at 33 nM,7%
same,Activity retention rate at 100 nM,30%
same,Activity retention rate at 300 nM,63%
same,Luminescence value at 33 nM,524000
same,Luminescence value at 100 nM,4.93e+06
same,Luminescence value at 300 nM,7.78e+06
B12,Activity retention rate at 33 nM,28%
same,Activity retention rate at 100 nM,62%
same,Activity retention rate at 300 nM,95%
same,Luminescence value at 33 nM,2.15e+06
same,Luminescence value at 100 nM,1.03e+07
same,Luminescence value at 300 nM,1.18e+07
B13,Activity retention rate at 33 nM,17%
same,Activity retention rate at 100 nM,46%
same,Activity retention rate at 300 nM,95%
same,Luminescence value at 33 nM,1.33e+06
same,Luminescence value at 100 nM,7.6e+06
same,Luminescence value at 300 nM,1.18e+07
B14,Activity retention rate at 33 nM,45%
same,Activity retention rate at 100 nM,61%
same,Activity retention rate at 300 nM,78%
same,Luminescence value at 33 nM,3.47e+06
same,Luminescence value at 100 nM,1.02e+07
same,Luminescence value at 300 nM,9.71e+06
B15,Activity retention rate at 33 nM,13%
same,Activity retention rate at 100 nM,41%
same,Activity retention rate at 300 nM,109%
same,Luminescence value at 33 nM,966000
same,Luminescence value at 100 nM,6.79e+06
same,Luminescence value at 300 nM,1.35e+07
B16,Activity retention rate at 33 nM,40%
same,Activity retention rate at 100 nM,57%
same,Activity retention rate at 300 nM,49%
same,Luminescence value at 33 nM,3.11e+06
same,Luminescence value at 100 nM,9.59e+06
same,Luminescence value at 300 nM,6.03e+06
B17,Activity retention rate at 33 nM,41%
same,Activity retention rate at 100 nM,57%
same,Activity retention rate at 300 nM,42%
same,Luminescence value at 33 nM,3.15e+06
same,Luminescence value at 100 nM,9.44e+06
same,Luminescence value at 300 nM,5.24e+06
B18,Activity retention rate at 33 nM,24%
same,Activity retention rate at 100 nM,50%
same,Activity retention rate at 300 nM,81%
same,Luminescence value at 33 nM,1.85e+06
same,Luminescence value at 100 nM,8.32e+06
same,Luminescence value at 300 nM,1.01e+07
B19,Activity retention rate at 33 nM,4%
same,Activity retention rate at 100 nM,28%
same,Activity retention rate at 300 nM,93%
same,Luminescence value at 33 nM,325000
same,Luminescence value at 100 nM,4.66e+06
same,Luminescence value at 300 nM,1.15e+07
